Tests used:
Test in all cases: ELISA, plate coated with 1 µg/mL recombinant human protein, anti-human IgG-HRP, OD450; antibody concentration not given
[1] = target: T1, recombinant human PD1 (ACROBiosystems) (human, UniProt Q15116 25-167)
T1 construct: counted here as a CD28 family member
Procedure: (§1) Binding specificity of the chimeric anti-human CD47 mAbs was determined by ELISA. A 96-well high-adsorption ELISA plate was coated with 1 μg/mL of the recombinant human PD1, CD28, CTLA4, ICOS, BTLA, CD47, PD-L2, CD80, CD86, B7-H2, CD47, SIRPα and SIRPγ (all from ACROBiosystems), at 100 μL per well using carbonate buffer solution, pH=9.6 at 4° C. overnight. The plate was washed 5 times with PBST, and then blocked using PBST with 1% BSA, 300 μL/well, and incubated at 25° C. for 1 hour, and then washed 5 times with PBST. The chimeric anti-human CD47 mAb samples serially diluted in PBST with 1% BSA and the control CC-90002 and the isotype control were added, 100 μL/well, incubated at 25° C. for 1 hour, and then washed 5 times with PBST. The horseradish peroxidase-labeled anti-human IgG antibody (Chemicon, catalog number AP309P) diluted 1:10000 in PBST with 1% BSA was then added, 100 μL per well, and incubated at 25° C. for 1 hour. The plate was washed 5 times with PBST. The colorimetric substrate TMB was added, 100 μL/well, and developed at room temperature for 10 minutes. 1M H₂SO₄ was added, 100 μL/well, to stop the development. The absorbance at 450 nm was read on a microplate reader.

[2] = target: T2, recombinant human CD28 (ACROBiosystems) (human, UniProt P10747 19-152)
T2 construct: counted here as a CD28 family member
Procedure: as §1

[3] = target: T3, recombinant human CTLA4 (ACROBiosystems) (human, UniProt P16410 37-162, limits assumed)
T3 construct: counted here as a CD28 family member
Procedure: as §1

[4] = target: T4, recombinant human ICOS (ACROBiosystems) (human, UniProt Q9Y6W8 21-140, limits assumed)
T4 construct: counted here as a CD28 family member
T4 sequence (looked up): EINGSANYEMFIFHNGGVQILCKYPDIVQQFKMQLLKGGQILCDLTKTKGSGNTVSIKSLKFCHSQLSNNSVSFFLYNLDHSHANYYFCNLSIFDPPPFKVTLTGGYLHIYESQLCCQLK
Procedure: as §1

[5] = target: T5, recombinant human BTLA (ACROBiosystems) (human, UniProt Q7Z6A9 31-151, limits assumed)
T5 construct: counted here as a CD28 family member
Procedure: as §1

[6] = target: T6, recombinant human PD-L2 (ACROBiosystems) (human, UniProt Q9BQ51 20-219, limits assumed)
T6 construct: counted here as a B7 family member
T6 sequence (looked up): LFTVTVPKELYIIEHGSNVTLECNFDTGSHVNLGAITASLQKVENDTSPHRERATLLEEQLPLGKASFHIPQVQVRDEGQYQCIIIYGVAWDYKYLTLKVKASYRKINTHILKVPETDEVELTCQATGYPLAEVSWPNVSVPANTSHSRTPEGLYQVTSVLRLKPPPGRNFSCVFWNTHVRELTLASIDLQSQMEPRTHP
Procedure: as §1

[7] = target: T7, recombinant human CD80 (ACROBiosystems) (human, UniProt P33681 35-242)
T7 construct: counted here as a B7 family member
T7 sequence (looked up): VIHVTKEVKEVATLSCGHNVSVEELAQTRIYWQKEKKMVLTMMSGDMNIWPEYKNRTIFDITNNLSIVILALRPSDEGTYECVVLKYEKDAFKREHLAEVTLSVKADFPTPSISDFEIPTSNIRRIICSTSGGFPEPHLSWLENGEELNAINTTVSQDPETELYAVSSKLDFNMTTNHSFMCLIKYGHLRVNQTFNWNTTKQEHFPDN
Procedure: as §1

[8] = target: T8, recombinant human CD86 (ACROBiosystems) (human, UniProt P42081 26-247, limits assumed)
T8 construct: counted here as a B7 family member
T8 sequence (looked up): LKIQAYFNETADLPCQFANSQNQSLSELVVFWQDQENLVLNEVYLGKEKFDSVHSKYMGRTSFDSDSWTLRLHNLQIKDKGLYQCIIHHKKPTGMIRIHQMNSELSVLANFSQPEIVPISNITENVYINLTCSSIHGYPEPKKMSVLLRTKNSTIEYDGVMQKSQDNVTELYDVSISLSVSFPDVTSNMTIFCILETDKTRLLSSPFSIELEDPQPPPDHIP
Procedure: as §1

[9] = target: T9, recombinant human B7-H2 (ACROBiosystems) (human, UniProt O75144 19-258, limits assumed)
T9 construct: counted here as a B7 family member
T9 sequence (looked up): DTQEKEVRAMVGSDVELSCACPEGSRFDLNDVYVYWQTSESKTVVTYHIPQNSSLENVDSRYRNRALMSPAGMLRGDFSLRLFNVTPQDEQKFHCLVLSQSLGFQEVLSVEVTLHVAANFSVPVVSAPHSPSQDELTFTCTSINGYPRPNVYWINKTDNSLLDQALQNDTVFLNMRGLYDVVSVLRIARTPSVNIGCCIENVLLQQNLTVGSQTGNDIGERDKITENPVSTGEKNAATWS
Procedure: as §1

[10] = target: T10, recombinant human SIRPα (ACROBiosystems) (human, UniProt P78324 31-370)
T10 construct: unlabelled protein coated in the specificity ELISA
Procedure: as §1

[11] = target: recombinant human SIRPγ (ACROBiosystems) (human, UniProt Q9P1W8 29-360, limits assumed)
Procedure: as §1

T10 sequence (P78324 31-370 limits assumed): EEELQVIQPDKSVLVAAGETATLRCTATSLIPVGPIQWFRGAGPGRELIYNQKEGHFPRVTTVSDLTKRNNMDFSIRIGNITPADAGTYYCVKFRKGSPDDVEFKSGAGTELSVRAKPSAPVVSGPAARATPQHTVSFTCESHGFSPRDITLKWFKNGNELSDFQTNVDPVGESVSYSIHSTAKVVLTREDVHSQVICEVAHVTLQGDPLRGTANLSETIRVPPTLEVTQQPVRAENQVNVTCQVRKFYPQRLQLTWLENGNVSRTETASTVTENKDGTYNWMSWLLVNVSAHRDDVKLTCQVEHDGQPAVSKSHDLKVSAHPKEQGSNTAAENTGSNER
T1 sequence (Q15116 25-167 limits assumed): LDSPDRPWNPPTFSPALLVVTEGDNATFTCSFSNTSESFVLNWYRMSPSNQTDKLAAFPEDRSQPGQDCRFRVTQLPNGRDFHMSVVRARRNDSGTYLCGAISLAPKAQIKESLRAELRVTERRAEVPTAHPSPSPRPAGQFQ
T5 sequence (Q7Z6A9 31-151 limits assumed): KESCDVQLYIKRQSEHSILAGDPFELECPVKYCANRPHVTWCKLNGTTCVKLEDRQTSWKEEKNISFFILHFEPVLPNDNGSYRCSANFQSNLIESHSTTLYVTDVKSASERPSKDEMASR
Sequence of recombinant human SIRPγ (ACROBiosystems) (Q9P1W8 29-360 limits assumed): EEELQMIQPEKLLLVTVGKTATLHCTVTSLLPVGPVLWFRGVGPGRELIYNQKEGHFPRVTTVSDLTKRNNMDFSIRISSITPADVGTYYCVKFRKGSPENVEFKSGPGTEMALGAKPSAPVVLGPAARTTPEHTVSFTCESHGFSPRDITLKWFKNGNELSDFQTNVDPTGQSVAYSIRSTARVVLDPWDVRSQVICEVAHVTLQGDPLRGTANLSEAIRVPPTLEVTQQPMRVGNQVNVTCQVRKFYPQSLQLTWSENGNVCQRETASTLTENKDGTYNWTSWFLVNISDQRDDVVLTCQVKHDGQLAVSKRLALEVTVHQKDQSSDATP
T3 sequence (P16410 37-162 limits assumed): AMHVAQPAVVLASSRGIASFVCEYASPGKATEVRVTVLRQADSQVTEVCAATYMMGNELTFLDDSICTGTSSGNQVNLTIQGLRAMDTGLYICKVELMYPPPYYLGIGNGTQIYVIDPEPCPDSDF

binding result [1]: no binding | binding result [2]: no binding | binding result [3]: no binding | binding result [4]: no binding | binding result [5]: no binding | binding result [6]: no binding | binding result [7]: no binding | binding result [8]: no binding | binding result [9]: no binding | binding result [10]: no binding | binding result [11]: no binding
B1: chimeric anti-human CD47 monoclonal antibody mAb-18-5 (antibody, human IgG1, kappa)
heavy: not shown
light: DIVMTQSQKFMSTSVGDRVSITCKASQNVRTSIAWYQQKSGQSPKTLIYLASNRHTGVPDRFTGSGSGTDFTLTISNVQSEDLADYFCLQHWNYPFTFGSGTKLEIKRTVAAPSVFIFPPSDEQLKSGTASVVCLLNNFYPREAKVQWKVDNALQSGNSQESVTEQDSKDSTYSLSSTLTLSKADYEKHKVYACEVTHQGLSSPVTKSFNRGEC
